The assay has as its target T1, human amylin receptor (amylin 3(a) receptor: human calcitonin receptor with RAMP-3) (human, UniProt P30988 25-474; O60896 24-148).
T1 construct: whole, on cells; also called hAmylin-R; hAmylinR
T1 sequence (looked up) 1: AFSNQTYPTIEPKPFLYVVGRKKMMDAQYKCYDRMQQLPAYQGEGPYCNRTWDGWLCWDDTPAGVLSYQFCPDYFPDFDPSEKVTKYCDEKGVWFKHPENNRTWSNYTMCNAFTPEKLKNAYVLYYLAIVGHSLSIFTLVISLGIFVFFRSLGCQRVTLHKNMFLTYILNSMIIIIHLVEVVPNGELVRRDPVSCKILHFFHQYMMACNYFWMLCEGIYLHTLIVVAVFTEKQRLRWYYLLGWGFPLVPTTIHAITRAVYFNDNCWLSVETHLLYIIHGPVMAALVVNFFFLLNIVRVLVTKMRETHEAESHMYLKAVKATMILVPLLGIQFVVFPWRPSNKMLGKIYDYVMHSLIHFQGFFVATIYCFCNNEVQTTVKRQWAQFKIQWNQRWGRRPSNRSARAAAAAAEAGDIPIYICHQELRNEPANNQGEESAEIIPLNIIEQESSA
T1 sequence (looked up) 2: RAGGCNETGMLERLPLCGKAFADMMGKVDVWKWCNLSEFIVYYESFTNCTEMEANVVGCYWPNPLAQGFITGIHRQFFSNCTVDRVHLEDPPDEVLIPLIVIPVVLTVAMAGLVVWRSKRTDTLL
Put plainly: SPA displacement of 125I-rat amylin, hAmylin 3(a) receptor membranes. In a few lines:
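Membranes from BHK Amylin 3(a)/CRE-luc cells (35 ng/μL final) were mixed with SPA beads and test compounds in 50 mM Hepes pH 7.4 with 1 mM CaCl2, 5 mM MgCl₂, 0.1% OA and 0.02% Tween20. Incubation ran 120 min at 25° C with shaking; IC₅₀ came from one-site competition fitting.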
On the technique in general: Displacement assays read how much labelled ligand stays bound in the presence of the test substance.

Numbered stars: 1 amine (or outer) side, 2 acyl side, 3 side chain; on linkers, the order of the positions; unused ones are H or OH. Bridge positions count the residues as written; N and C are the ends. Side chains are listed from the residue outwards. Ends that are not written are not given here. * marks the point of attachment. C20 diacid = O=C(O)CCCCCCCCCCCCCCCCCCC(=O)*; γGlu = O=C(O)[C@H](CCC(=O)[*:2])N[*:1]; AEEA = NCCOCCOCC(=O)O

Broadly, the IC50 is the midpoint of a concentration-inhibition curve.

B1: N^ε1-[2-[2-[2-[[(4S)-4-carboxy-4-(19-carboxynonadecanoylamino)butanoyl]amino]ethoxy]ethoxy]acetyl]-[Arg17,Pro21,Pro27,Pro29,Pro34]-h-amylin (peptide)
peptide: K([AEEA-γGlu-C20 diacid])CNTATCATQRLANFLRHSSPNFGAIPSPTNVGPNTY-NH2
modifications: disulfide 2-7; N-terminus assumed
SMILES: CC[C@H](C)[C@H](NC(=O)[C@H](C)NC(=O)CNC(=O)[C@H](Cc1ccccc1)NC(=O)[C@H](CC(N)=O)NC(=O)[C@@H]1CCCN1C(=O)[C@H](CO)NC(=O)[C@H](CO)NC(=O)[C@H](Cc1c[nH]cn1)NC(=O)[C@H](CCCNC(=N)N)NC(=O)[C@H](CC(C)C)NC(=O)[C@H](Cc1ccccc1)NC(=O)[C@H](CC(N)=O)NC(=O)[C@H](C)NC(=O)[C@H](CC(C)C)NC(=O)[C@H](CCCNC(=N)N)NC(=O)[C@H](CCC(N)=O)NC(=O)[C@@H](NC(=O)[C@H](C)NC(=O)[C@@H]1CSSC[C@H](NC(=O)[C@@H](N)CCCCNC(=O)COCCOCCNC(=O)CC[C@H](NC(=O)CCCCCCCCCCCCCCCCCCC(=O)O)C(=O)O)C(=O)N[C@@H](CC(N)=O)C(=O)N[C@@H]([C@@H](C)O)C(=O)N[C@@H](C)C(=O)N[C@@H]([C@@H](C)O)C(=O)N1)[C@@H](C)O)C(=O)N1CCC[C@H]1C(=O)N[C@@H](CO)C(=O)N1CCC[C@H]1C(=O)N[C@H](C(=O)N[C@@H](CC(N)=O)C(=O)N[C@H](C(=O)NCC(=O)N1CCC[C@H]1C(=O)N[C@@H](CC(N)=O)C(=O)N[C@H](C(=O)N[C@@H](Cc1ccc(O)cc1)C(N)=O)[C@@H](C)O)C(C)C)[C@@H](C)O
notes: also called 56; compound 56
Regarding B1, the half-maximal inhibitory concentration (IC50) stood at 0.049 nM.

B2: N^ε1-[2-[2-[2-[[(4S)-4-carboxy-4-(19-carboxynonadecanoylamino)butanoyl]amino]ethoxy]ethoxy]acetyl]-[Arg17,Pro21,Pro27,Pro34,His35]-h-amylin (peptide)
peptide: K([AEEA-γGlu-C20 diacid])CNTATCATQRLANFLRHSSPNFGAIPSSTNVGPHTY-NH2
modifications: disulfide 2-7; N-terminus assumed
SMILES: CC[C@H](C)[C@H](NC(=O)[C@H](C)NC(=O)CNC(=O)[C@H](Cc1ccccc1)NC(=O)[C@H](CC(N)=O)NC(=O)[C@@H]1CCCN1C(=O)[C@H](CO)NC(=O)[C@H](CO)NC(=O)[C@H](Cc1c[nH]cn1)NC(=O)[C@H](CCCNC(=N)N)NC(=O)[C@H](CC(C)C)NC(=O)[C@H](Cc1ccccc1)NC(=O)[C@H](CC(N)=O)NC(=O)[C@H](C)NC(=O)[C@H](CC(C)C)NC(=O)[C@H](CCCNC(=N)N)NC(=O)[C@H](CCC(N)=O)NC(=O)[C@@H](NC(=O)[C@H](C)NC(=O)[C@@H]1CSSC[C@H](NC(=O)[C@@H](N)CCCCNC(=O)COCCOCCNC(=O)CC[C@H](NC(=O)CCCCCCCCCCCCCCCCCCC(=O)O)C(=O)O)C(=O)N[C@@H](CC(N)=O)C(=O)N[C@@H]([C@@H](C)O)C(=O)N[C@@H](C)C(=O)N[C@@H]([C@@H](C)O)C(=O)N1)[C@@H](C)O)C(=O)N1CCC[C@H]1C(=O)N[C@@H](CO)C(=O)N[C@@H](CO)C(=O)N[C@H](C(=O)N[C@@H](CC(N)=O)C(=O)N[C@H](C(=O)NCC(=O)N1CCC[C@H]1C(=O)N[C@@H](Cc1c[nH]cn1)C(=O)N[C@H](C(=O)N[C@@H](Cc1ccc(O)cc1)C(N)=O)[C@@H](C)O)C(C)C)[C@@H](C)O
notes: also called 58; compound 58
As to B2, the 50% inhibitory concentration (IC50) is 0.088 nM.

B3: N^ε1-[2-[2-[2-[[(4S)-4-carboxy-4-(19-carboxynonadecanoylamino)butanoyl]amino]ethoxy]ethoxy]acetyl]-[Arg17,Pro21,Pro27,Pro34]-h-amylin (peptide)
peptide: K([AEEA-γGlu-C20 diacid])CNTATCATQRLANFLRHSSPNFGAIPSSTNVGPNTY-NH2
modifications: disulfide 2-7; N-terminus assumed
SMILES: CC[C@H](C)[C@H](NC(=O)[C@H](C)NC(=O)CNC(=O)[C@H](Cc1ccccc1)NC(=O)[C@H](CC(N)=O)NC(=O)[C@@H]1CCCN1C(=O)[C@H](CO)NC(=O)[C@H](CO)NC(=O)[C@H](Cc1c[nH]cn1)NC(=O)[C@H](CCCNC(=N)N)NC(=O)[C@H](CC(C)C)NC(=O)[C@H](Cc1ccccc1)NC(=O)[C@H](CC(N)=O)NC(=O)[C@H](C)NC(=O)[C@H](CC(C)C)NC(=O)[C@H](CCCNC(=N)N)NC(=O)[C@H](CCC(N)=O)NC(=O)[C@@H](NC(=O)[C@H](C)NC(=O)[C@@H]1CSSC[C@H](NC(=O)[C@@H](N)CCCCNC(=O)COCCOCCNC(=O)CC[C@H](NC(=O)CCCCCCCCCCCCCCCCCCC(=O)O)C(=O)O)C(=O)N[C@@H](CC(N)=O)C(=O)N[C@@H]([C@@H](C)O)C(=O)N[C@@H](C)C(=O)N[C@@H]([C@@H](C)O)C(=O)N1)[C@@H](C)O)C(=O)N1CCC[C@H]1C(=O)N[C@@H](CO)C(=O)N[C@@H](CO)C(=O)N[C@H](C(=O)N[C@@H](CC(N)=O)C(=O)N[C@H](C(=O)NCC(=O)N1CCC[C@H]1C(=O)N[C@@H](CC(N)=O)C(=O)N[C@H](C(=O)N[C@@H](Cc1ccc(O)cc1)C(N)=O)[C@@H](C)O)C(C)C)[C@@H](C)O
notes: also called 50; compound 50
B3: the IC50 amounted to 0.038 nM.

B4: N^ε1-[2-[2-[2-[[(4S)-4-carboxy-4-(19-carboxynonadecanoylamino)butanoyl]amino]ethoxy]ethoxy]acetyl]-[Arg17,Pro21,Pro27,Pro31,His35]-h-amylin (peptide)
peptide: K([AEEA-γGlu-C20 diacid])CNTATCATQRLANFLRHSSPNFGAIPSSTPVGSHTY-NH2
modifications: disulfide 2-7; N-terminus assumed
SMILES: CC[C@H](C)[C@H](NC(=O)[C@H](C)NC(=O)CNC(=O)[C@H](Cc1ccccc1)NC(=O)[C@H](CC(N)=O)NC(=O)[C@@H]1CCCN1C(=O)[C@H](CO)NC(=O)[C@H](CO)NC(=O)[C@H](Cc1c[nH]cn1)NC(=O)[C@H](CCCNC(=N)N)NC(=O)[C@H](CC(C)C)NC(=O)[C@H](Cc1ccccc1)NC(=O)[C@H](CC(N)=O)NC(=O)[C@H](C)NC(=O)[C@H](CC(C)C)NC(=O)[C@H](CCCNC(=N)N)NC(=O)[C@H](CCC(N)=O)NC(=O)[C@@H](NC(=O)[C@H](C)NC(=O)[C@@H]1CSSC[C@H](NC(=O)[C@@H](N)CCCCNC(=O)COCCOCCNC(=O)CC[C@H](NC(=O)CCCCCCCCCCCCCCCCCCC(=O)O)C(=O)O)C(=O)N[C@@H](CC(N)=O)C(=O)N[C@@H]([C@@H](C)O)C(=O)N[C@@H](C)C(=O)N[C@@H]([C@@H](C)O)C(=O)N1)[C@@H](C)O)C(=O)N1CCC[C@H]1C(=O)N[C@@H](CO)C(=O)N[C@@H](CO)C(=O)N[C@H](C(=O)N1CCC[C@H]1C(=O)N[C@H](C(=O)NCC(=O)N[C@@H](CO)C(=O)N[C@@H](Cc1c[nH]cn1)C(=O)N[C@H](C(=O)N[C@@H](Cc1ccc(O)cc1)C(N)=O)[C@@H](C)O)C(C)C)[C@@H](C)O
notes: also called 57; compound 57
Turning to B4, the half-inhibitory concentration (IC50) turned out to be 0.115 nM.

B5: N^ε1-[2-[2-[2-[[(4S)-4-carboxy-4-(19-carboxynonadecanoylamino)butanoyl]amino]ethoxy]ethoxy]acetyl]-[Arg17,Pro21,Pro27,Pro31]-h-amylin (peptide)
peptide: K([AEEA-γGlu-C20 diacid])CNTATCATQRLANFLRHSSPNFGAIPSSTPVGSNTY-NH2
modifications: disulfide 2-7; N-terminus assumed
SMILES: CC[C@H](C)[C@H](NC(=O)[C@H](C)NC(=O)CNC(=O)[C@H](Cc1ccccc1)NC(=O)[C@H](CC(N)=O)NC(=O)[C@@H]1CCCN1C(=O)[C@H](CO)NC(=O)[C@H](CO)NC(=O)[C@H](Cc1c[nH]cn1)NC(=O)[C@H](CCCNC(=N)N)NC(=O)[C@H](CC(C)C)NC(=O)[C@H](Cc1ccccc1)NC(=O)[C@H](CC(N)=O)NC(=O)[C@H](C)NC(=O)[C@H](CC(C)C)NC(=O)[C@H](CCCNC(=N)N)NC(=O)[C@H](CCC(N)=O)NC(=O)[C@@H](NC(=O)[C@H](C)NC(=O)[C@@H]1CSSC[C@H](NC(=O)[C@@H](N)CCCCNC(=O)COCCOCCNC(=O)CC[C@H](NC(=O)CCCCCCCCCCCCCCCCCCC(=O)O)C(=O)O)C(=O)N[C@@H](CC(N)=O)C(=O)N[C@@H]([C@@H](C)O)C(=O)N[C@@H](C)C(=O)N[C@@H]([C@@H](C)O)C(=O)N1)[C@@H](C)O)C(=O)N1CCC[C@H]1C(=O)N[C@@H](CO)C(=O)N[C@@H](CO)C(=O)N[C@H](C(=O)N1CCC[C@H]1C(=O)N[C@H](C(=O)NCC(=O)N[C@@H](CO)C(=O)N[C@@H](CC(N)=O)C(=O)N[C@H](C(=O)N[C@@H](Cc1ccc(O)cc1)C(N)=O)[C@@H](C)O)C(C)C)[C@@H](C)O
notes: also called 49; compound 49
Turning to B5, the IC50 is 1.19 nM.

The record behind these values is patent publication US20140087995A1 (published 2014).
